Key:
[1] = substrate: CC(C)=CCC/C(C)=C\COP(=O)(O)OP(=O)(O)O; assay: GC-MS of hexane-extracted monoterpene products; format: biochemical, Salvia fruticosa; settings: 20 mM MOPS pH 7.0, 20 mM MgCl2, 0.02 mM MnCl2, 30 °C, 1 h
Description: (§1) GC-MS of hexane-extracted monoterpene products on […]1

[2] = substrate: CC(C)=CCC/C(C)=C/COP(=O)(O)OP(=O)(O)O; assay: GC-MS of hexane-extracted monoterpene products; format: biochemical, Salvia fruticosa; settings: 20 mM MOPS pH 7.0, 20 mM MgCl2, 0.02 mM MnCl2, 30 °C, 1 h
Description: as §1

[3] = substrate: CC(C)=CCC/C(C)=C\COP(=O)(O)OP(=O)(O)O; assay: GC-MS of hexane-extracted monoterpene products; format: biochemical, Citrus x limon; settings: 20 mM MOPS pH 7.0, 20 mM MgCl2, 0.02 mM MnCl2, 30 °C, 1 h
Description: (§2) GC-MS of hexane-extracted monoterpene products on […]

[4] = substrate: CC(C)=CCC/C(C)=C/COP(=O)(O)OP(=O)(O)O; assay: GC-MS of hexane-extracted monoterpene products; format: biochemical, Citrus x limon; settings: 20 mM MOPS pH 7.0, 20 mM MgCl2, 0.02 mM MnCl2, 30 °C, 1 h
Description: as §2

purified protein = substrate: C=C(C)CCO[P@@](=O)(O)OP(=O)(O)O; assay: purified protein; settings: 0.05 mM DMAPP, 10 mM MOPS pH 7.0, 5 mM MgCl2, 30 °C, 1 h
[5] = substrate: CC(C)=CCOP(=O)(O)OP(=O)(O)O; assay: GC-MS after acid hydrolysis of prenyl diphosphates; format: biochemical, Solanum lycopersicum; settings: 0.05 mM IPP, 10 mM MOPS pH 7.0, 5 mM MgCl2, 30 °C, 1 h

B1: SfCinS1 (Salvia fruticosa; F571V) (protein)
chain: CSLQTGNEIQTERRTGGYQPTLWDFSTIQSFDSEYKEEKHLMRAAGMIDQVKMMLQEEVDSIRRLELIDDLRRLGISCHFEREIVEILNSKYYTNNEIDERDLYSTALRFRLLRQYDFSVSQEVFDCFKNAKGTDFKPSLVDDTRGLLQLYEASFLSAQGEETLRLARDFATKFLQKRVLVDKDINLLSSIERALELPTHWRVQMPNARSFIDAYKRRPDMNPTVLELAKLDFNMVQAQFQQELKEASRWWNSTGLVHELPFVRDRIVECYYWTTGVVERRQHGYERIMLTKINALVTTIDDVFDIYGTLEELQLFTTAIQRWDIESMKQLPPYMQICYLALFNFVNEMAYDTLRDKGFDSTPYLRKVWVGLIESYLIEAKWYYKGHKPSLEEYMKNSWISIGGIPILSHLFFRLTDSIEEEAAESMHKYHDIVRASCTILRLADDMGTSLDEVERGDVPKSVQCYMNEKNASEEEAREHVRSLIDQTWKMMNKEMMTSSFSKYFVEVSANLARMAQWIYQHESDGVGMQHSLVNKMLRDLLFHRYE
notes: 6xHis-tagged, E. coli BL21(DE3), Ni-NTA purified
[1]
  Km: 67.24 ± 13.30 µM
  kcat: 0.0075 ± 0.000667 s⁻¹
  kcat/Km: 117 M⁻¹ s⁻¹
[2]
  Km: 271.5 ± 95.30 µM
  kcat: 0.00533 ± 0.00133 s⁻¹
  kcat/Km: 16.7 M⁻¹ s⁻¹

B2: SfCinS1 (Salvia fruticosa; F571H) (protein)
chain: CSLQTGNEIQTERRTGGYQPTLWDFSTIQSFDSEYKEEKHLMRAAGMIDQVKMMLQEEVDSIRRLELIDDLRRLGISCHFEREIVEILNSKYYTNNEIDERDLYSTALRFRLLRQYDFSVSQEVFDCFKNAKGTDFKPSLVDDTRGLLQLYEASFLSAQGEETLRLARDFATKFLQKRVLVDKDINLLSSIERALELPTHWRVQMPNARSFIDAYKRRPDMNPTVLELAKLDFNMVQAQFQQELKEASRWWNSTGLVHELPFVRDRIVECYYWTTGVVERRQHGYERIMLTKINALVTTIDDVFDIYGTLEELQLFTTAIQRWDIESMKQLPPYMQICYLALFNFVNEMAYDTLRDKGFDSTPYLRKVWVGLIESYLIEAKWYYKGHKPSLEEYMKNSWISIGGIPILSHLFFRLTDSIEEEAAESMHKYHDIVRASCTILRLADDMGTSLDEVERGDVPKSVQCYMNEKNASEEEAREHVRSLIDQTWKMMNKEMMTSSFSKYFVEVSANLARMAQWIYQHESDGHGMQHSLVNKMLRDLLFHRYE
notes: as for B1
[1]
  Km: 238.1 ± 34.35 µM
  kcat: 0.0123 ± 0.00133 s⁻¹
  kcat/Km: 50 M⁻¹ s⁻¹
[2]
  Km: 18.05 ± 5.07 µM
  kcat: 0.0143 ± 0.0015 s⁻¹
  kcat/Km: 800 M⁻¹ s⁻¹

B3: SfCinS1 (Salvia fruticosa) (protein)
chain: CSLQTGNEIQTERRTGGYQPTLWDFSTIQSFDSEYKEEKHLMRAAGMIDQVKMMLQEEVDSIRRLELIDDLRRLGISCHFEREIVEILNSKYYTNNEIDERDLYSTALRFRLLRQYDFSVSQEVFDCFKNAKGTDFKPSLVDDTRGLLQLYEASFLSAQGEETLRLARDFATKFLQKRVLVDKDINLLSSIERALELPTHWRVQMPNARSFIDAYKRRPDMNPTVLELAKLDFNMVQAQFQQELKEASRWWNSTGLVHELPFVRDRIVECYYWTTGVVERRQHGYERIMLTKINALVTTIDDVFDIYGTLEELQLFTTAIQRWDIESMKQLPPYMQICYLALFNFVNEMAYDTLRDKGFDSTPYLRKVWVGLIESYLIEAKWYYKGHKPSLEEYMKNSWISIGGIPILSHLFFRLTDSIEEEAAESMHKYHDIVRASCTILRLADDMGTSLDEVERGDVPKSVQCYMNEKNASEEEAREHVRSLIDQTWKMMNKEMMTSSFSKYFVEVSANLARMAQWIYQHESDGFGMQHSLVNKMLRDLLFHRYE
notes: as for B1
[1]
  Km: 89.46 ± 4.99 µM
  kcat: 0.203 ± 0.0445 s⁻¹
  kcat/Km: 2280 M⁻¹ s⁻¹
[2]
  Km: 26.12 ± 2.79 µM
  kcat: 0.0927 ± 0.00633 s⁻¹
  kcat/Km: 3550 M⁻¹ s⁻¹

B4: SfCinS1 (Salvia fruticosa; F571L) (protein)
chain: CSLQTGNEIQTERRTGGYQPTLWDFSTIQSFDSEYKEEKHLMRAAGMIDQVKMMLQEEVDSIRRLELIDDLRRLGISCHFEREIVEILNSKYYTNNEIDERDLYSTALRFRLLRQYDFSVSQEVFDCFKNAKGTDFKPSLVDDTRGLLQLYEASFLSAQGEETLRLARDFATKFLQKRVLVDKDINLLSSIERALELPTHWRVQMPNARSFIDAYKRRPDMNPTVLELAKLDFNMVQAQFQQELKEASRWWNSTGLVHELPFVRDRIVECYYWTTGVVERRQHGYERIMLTKINALVTTIDDVFDIYGTLEELQLFTTAIQRWDIESMKQLPPYMQICYLALFNFVNEMAYDTLRDKGFDSTPYLRKVWVGLIESYLIEAKWYYKGHKPSLEEYMKNSWISIGGIPILSHLFFRLTDSIEEEAAESMHKYHDIVRASCTILRLADDMGTSLDEVERGDVPKSVQCYMNEKNASEEEAREHVRSLIDQTWKMMNKEMMTSSFSKYFVEVSANLARMAQWIYQHESDGLGMQHSLVNKMLRDLLFHRYE
notes: as for B1
[1]
  Km: 71.82 ± 17.63 µM
  kcat: 0.0107 ± 0.00133 s⁻¹
  kcat/Km: 150 M⁻¹ s⁻¹
[2]
  Km: 55.72 ± 9.22 µM
  kcat: 0.00733 ± 0.00117 s⁻¹
  kcat/Km: 133 M⁻¹ s⁻¹

B5: ClLimS (Citrus x limon) (protein)
chain: AKYKPVQCLISAKYDNLTVDRRSANYQPSIWDHDFLQSLNSNYTDEAYKRRAEELRGKVKIAIKDVIEPLDQLELIDNLQRLGLAHRFETEIRNILNNIYNNNKDYNWRKENLYATSLEFRLLRQHGYPVSQEVFNGFKDDQGGFICDDFKGILSLHEASYYSLEGESIMEEAWQFTSKHLKEVMISKNMEEDVFVAEQAKRALELPLHWKVPMLEARWFIHIYERREDKNHLLLELAKMEFNTLQAIYQEELKEISGWWKDTGLGEKLSFARNRLVASFLWSMGIAFEPQFAYCRRVLTISIALITVIDDIYDVYGTLDELEIFTDAVERWDINYALKHLPGYMKMCFLALYNFVNEFAYYVLKQQDFDLLLSIKNAWLGLIQAYLVEAKWYHSKYTPKLEEYLENGLVSITGPLIITISYLSGTNPIIKKELEFLESNPDIVHWSSKIFRLQDDLGTSSDEIQRGDVPKSIQCYMHETGASEEVARQHIKDMMRQMWKKVNAYTADKDSPLTGTTTEFLLNLVRMSHFMYLHGDGHGVQNQETIDVGFTLLFQPIPLEDKHMAFTASPGTKG
notes: 6xHis-tagged, E. coli BL21(DE3), Ni-NTA purified; printed as (+)-S-limonene synthase
[3]
  Km: 81.55 ± 7.33 µM
  kcat: 0.619 ± 0.0293 s⁻¹
  kcat/Km: 7600 M⁻¹ s⁻¹
[4]
  Km: 24.94 ± 3.76 µM
  kcat: 0.306 ± 0.0147 s⁻¹
  kcat/Km: 12200 M⁻¹ s⁻¹

B6: ClLimS (Citrus x limon; H570I) (protein)
chain: AKYKPVQCLISAKYDNLTVDRRSANYQPSIWDHDFLQSLNSNYTDEAYKRRAEELRGKVKIAIKDVIEPLDQLELIDNLQRLGLAHRFETEIRNILNNIYNNNKDYNWRKENLYATSLEFRLLRQHGYPVSQEVFNGFKDDQGGFICDDFKGILSLHEASYYSLEGESIMEEAWQFTSKHLKEVMISKNMEEDVFVAEQAKRALELPLHWKVPMLEARWFIHIYERREDKNHLLLELAKMEFNTLQAIYQEELKEISGWWKDTGLGEKLSFARNRLVASFLWSMGIAFEPQFAYCRRVLTISIALITVIDDIYDVYGTLDELEIFTDAVERWDINYALKHLPGYMKMCFLALYNFVNEFAYYVLKQQDFDLLLSIKNAWLGLIQAYLVEAKWYHSKYTPKLEEYLENGLVSITGPLIITISYLSGTNPIIKKELEFLESNPDIVHWSSKIFRLQDDLGTSSDEIQRGDVPKSIQCYMHETGASEEVARQHIKDMMRQMWKKVNAYTADKDSPLTGTTTEFLLNLVRMSHFMYLHGDGIGVQNQETIDVGFTLLFQPIPLEDKHMAFTASPGTKG
notes: as for B5
[3]
  Km: 27.06 ± 4.72 µM
  kcat: 0.0317 ± 0.00217 s⁻¹
  kcat/Km: 1170 M⁻¹ s⁻¹
[4]
  Km: 24.43 ± 6.44 µM
  kcat: 0.0035 ± 0.000333 s⁻¹
  kcat/Km: 150 M⁻¹ s⁻¹

B7: ClLimS (Citrus x limon; H570Y) (protein)
chain: AKYKPVQCLISAKYDNLTVDRRSANYQPSIWDHDFLQSLNSNYTDEAYKRRAEELRGKVKIAIKDVIEPLDQLELIDNLQRLGLAHRFETEIRNILNNIYNNNKDYNWRKENLYATSLEFRLLRQHGYPVSQEVFNGFKDDQGGFICDDFKGILSLHEASYYSLEGESIMEEAWQFTSKHLKEVMISKNMEEDVFVAEQAKRALELPLHWKVPMLEARWFIHIYERREDKNHLLLELAKMEFNTLQAIYQEELKEISGWWKDTGLGEKLSFARNRLVASFLWSMGIAFEPQFAYCRRVLTISIALITVIDDIYDVYGTLDELEIFTDAVERWDINYALKHLPGYMKMCFLALYNFVNEFAYYVLKQQDFDLLLSIKNAWLGLIQAYLVEAKWYHSKYTPKLEEYLENGLVSITGPLIITISYLSGTNPIIKKELEFLESNPDIVHWSSKIFRLQDDLGTSSDEIQRGDVPKSIQCYMHETGASEEVARQHIKDMMRQMWKKVNAYTADKDSPLTGTTTEFLLNLVRMSHFMYLHGDGYGVQNQETIDVGFTLLFQPIPLEDKHMAFTASPGTKG
notes: as for B5
[3]
  Km: 23.98 ± 6.41 µM
  kcat: 0.364 ± 0.0277 s⁻¹
  kcat/Km: 15200 M⁻¹ s⁻¹
[4]
  Km: 11.76 ± 4.82 µM
  kcat: 0.149 ± 0.00717 s⁻¹
  kcat/Km: 12600 M⁻¹ s⁻¹

B8: SlNPPS1 (Solanum lycopersicum) (protein)
chain: SARGLNKISCSLNLQTEKLCYEDNDNDLDEELMPKHIALIMDGNRRWAKDKGLEVYEGHKHIIPKLKEICDISSKLGIQIITAFAFSTENWKRSKEEVDFLLQMFEEIYDEFSRSGVRVSIIGCKSDLPMTLQKCIALTEETTKGNKGLHLVIALNYGGYYDILQATKSIVNKAMNGLLDVEDINKNLFDQELESKCPNPDLLIRTGGEQRVSNFLLWQLAYTEFYFTNTLFPDFGEEDLKEAIMNFQQRHRRFGGHTY
Purified protein
  Km: 83.69 ± 17.41 µM
  kcat: 0.041 ± 0.003 min⁻¹
[5]
  Km: 66.72 ± 6.32 µM
  kcat: 0.037 ± 0.001 min⁻¹
